Here are results for three substances from PMC5587908.

“And” between values parts separate entries of the source, which are not always exact repeats. Equal values may be shown once.

For one experiment, the target named is human plasminogen (Plg). The experiment in a line: ELISA. More on the design: dose or concentration left out as unconfirmed. As to conditions: FnBPB proteins immobilized on microtiter wells, read off a plot. (ELISA stands for enzyme-linked immunosorbent assay.)
The target in experiment [1] is full-length FnBPB on S. aureus FnBPB^(+) cells (S. aureus strain 8325-4). The experiment in a line: single-molecule force spectroscopy (AFM); Fg tips against living FnBPB^(+) cells; PBS, contact time 100 ms, applied force 250 pN, speed 1,000 nm s^-1.
For experiment [2] the target is unchanged. The experiment in a line: single-molecule force spectroscopy (AFM); as a7, in the presence of 0.1 mg ml^-1 Fg in the AFM chamber.
Experiment [3] has the same target. The experiment is described as follows: single-cell force spectroscopy (AFM); single living S. aureus cell on a polydopamine-coated colloidal cantilever against Plg coupled to a gold substrate (NHS/EDC); PBS, 20°C, contact time 1 s, applied force 250 pN, speed 1,000 nm s^-1; without Fg.
For experiment [4] the target is unchanged. The experiment in a line: single-molecule force spectroscopy (AFM); Plg on the AFM tip (PEG-benzaldehyde linker) against living S. aureus cells trapped in porous membranes; PBS, 20°C, contact time 250 ms, applied force 250 pN, speed 1,000 nm s^-1; without Fg.
For experiment [5] the target is unchanged. The experiment in a line: single-cell force spectroscopy (AFM); as a5, in the presence of 0.1 mg ml^-1 Fg in the AFM chamber.
Experiment [6] has as its target FnBPA (194-511), FnBPA_(N2N3) (S. aureus) (UniProt P14738). The experiment is described as follows: ELISA; FnBPA_(N2N3) or FnBPB_(N2N3) coated on microtiter wells (200 ng/well, 0.1 M sodium carbonate pH 9.5), increasing concentrations of Plg for 1 h; bound Plg detected with rabbit anti-Plg and HRP goat anti-rabbit IgG; Kd from the Plg saturation kinetics.
The target in experiment [7] is FnBPB (163-480), FnBPB_(N2N3) (S. aureus). The description is as above.

“FnBPB (163-480), FnBPB_(N2N3) (from UniProt A0A0H2XKG3) N312A; F314A”: the response was determined as 1.5 A490nm with human plasminogen (Plg) (+ Fg (black bar), saturating amounts of Fg, bound Plg detected with rabbit antibodies followed by HRP-con, parent: est. 1.5) and 1.5 A490nm in the experiment with human plasminogen (Plg) (- Fg (white bar), bound Plg detected with rabbit antibodies followed by HRP-conjugated goat anti-rabbit IgG, parent: est. 1.6).
In experiment [1], “human fibrinogen (Fg) (from UniProt P02671 36-866; P02675 45-491; P02679 27-453) (complex)” showed an adhesion force (single molecule, cell 1) of 1970 pN; an adhesion force (single molecule, cell 2) of 1690 pN; an adhesion force (single molecule, cell 3) of 1960 pN.
Turning to “human plasminogen (Plg) (natural protein)”, in experiment [2], the binding force (cell 1, with 0.1 mg/ml Fg) amounted to 898 pN; the binding force (cell 2, with 0.1 mg/ml Fg) was found to be 619 pN; the binding force (cell 3, with 0.1 mg/ml Fg) was determined as 561 pN; the binding probability (cell 1, with 0.1 mg/ml Fg) turned out to be 81%. Moreover, in experiment [2], the binding probability (cell 2, with 0.1 mg/ml Fg) came to 79% and the binding probability (cell 3, with 0.1 mg/ml Fg) is 73%. In experiment [3], this substance showed an adhesion force (single cell, cell 1) of 556 pN; an adhesion force (single cell, cell 2) of 249 pN; an adhesion force (single cell, cell 2, a few curves) of 1630 pN; an adhesion force (single cell, cell 3) of 1600 pN. In experiment [3], the maximum adhesion force (single cell, cells 2 and 3) was 1500 pN and 2000 pN; the mean adhesion force (single cell, 3 cells) is 775 pN. In addition, in experiment [4], the adhesion force (single molecule) is 188 pN, the adhesion frequency is 40%, the binding force (cell 1) was found to be 175 pN and the binding force (cell 2) amounted to 154 pN. Further, in experiment [4], the binding force (cell 3) worked out at 176 pN, the binding probability (cell 1) was determined as 67%, the binding probability (cell 2) stood at 24% and the binding probability (cell 3) is 42%. Further, in experiment [5], the mean adhesion force (single cell, 3 cells, with 0.1 mg/ml Fg) stood at 2100 pN. Besides, the dissociation constant (Kd) (commonly the equilibrium constant for the complex coming apart) in experiment [6] was 600 nM. The same substance showed a Kd in experiment [7] of 380 nM.
